Test results: US6703037B1, “Biodegradable macromers for the controlled release of biologically active substances” (Pelias Technologies, Inc., priority 1997, dated 2004)

Experiments:
male Sprague-Dawley rats = experiment: Fraction of reticulocytes in rats given EPO (Example 11); assay type: in vivo, rat; conditions: day 5, Acridine Orange, flow cytometry
Description: The controlled delivery of active human erythropoeitin (EPO) was confirmed in male Sprague-Dawley rats purchased from Taconic Labs (Germantown, N.Y.). Hydrogel devices were manufactured to contain 3000 Units per device, as described in Example 14. These devices were prepared in the absence of vinyl pyrrolidone, and other polymerizable monovinyl monomers. One of these devices was implanted in each of 3 rats. Three other rats received a subcutaneous injection of EPO (1000 Units) daily for 3 days. A control group of 3 rats received no treatment.
On day 5 after implantation of the device or the start of the subcutaneous injections, venous blood samples were obtained from each rat and stored in EDTA. The fraction of reticulocytes (immature red blood cells) was determined after staining with Acridine Orange by automated flow cytometry.

[1] = In vitro release of EPO from 3.4KL5 discs, size exclusion chromatography (Example 14); assay type: physicochemical
Description: To a sterile 20 mL vial were added: 0.0330 g of TEOA (neat), 1.0076 g of 3.4KL5, 0.0598 g of 1000 ppm eosin (in PBS, pH 7.0), and 2.32 g solution of EPO (10,000 units/mL). No vinyl pyrrolidone, or other polymerizable monovinyl monomer was added. The resulting mixture was mixed and polymerized by light (ILC Technology, Inc. Xenon Light Source with Fiber Optics).
The rate of in vitro release was conducted by averaging the release from 3 discs containing an average of 2500 units per disc. The release was conducted in 4 mL of PBS (pH 7.4) at 39° C. The release media was exchanged daily. Analysis was done by size exclusion chromatography. (HPLC: model 2690 by waters, Column: SEC 250 by BioRad, mobile phase: 0.8M TFA in 60% acetonitrile @1.5 mL/min, detector wavelength: 220 nm).

[2] = In vitro short term release of insulin from 3.4KL5, SEC-HPLC (Example 6); assay type: physicochemical; conditions: Zn-Insulin 47% loading in 3.4KL5
Description: Device Preparation: A degradable macromer (3.4KL5) was used. […] The protein was loaded at a loading of 47%, based on dry weight. Three samples were prepared.
The samples were prepared as described in Example 4. The samples were analyzed by SEC-HPLC for the detection of monomers, dimers and soluble aggregates, using the conditions described in Example 5.

[3] = In vitro release of insulin from 3.4KL5 particles, size exclusion chromatography (Example 15); assay type: physicochemical
Description: No vinyl pyrrolidone, or other polymerizable monovinyl monomer was added. The resulting mixture was mixed and placed into 10 mL glass tubes. The tubes were exposed to xenon light (ILC Technology, Inc. Xenon Light Source with Fiber Optics) for 10 seconds. The semi-cured hydrogel was pushed out of the glass tube and further polymerized for 3.5 minutes. The cured hydrogel rods were placed in 15 mL of heptane and ground using a homogenizer (Silverson L4RT-A) for 30 seconds @5000 rpm, followed by 30 seconds @3000 rpm. The heptane was decanted, and the powder was dried under nitrogen.
Particles (16 mg) were placed in a porous (0.8 mm) “release-bag” (described in Example 5). The in vitro release was calculated by averaging the release from 2 release bags. The release-bag was placed into 2 mL of PBS (pH 7.4) at 39° C. The release media was exchanged every 15 minutes for the first 2 hours and every 30 minutes thereafter. Analysis was done by size exclusion chromatography. (HPLC: model 2690 by waters, Column: SEC 250 by BioRad, mobile phase: 0.8M TFA in 60% acetonitrile @1.5 mL/min, detector wavelength: 220 nm).

hypophysectomized rats [4] = experiment: Growth of hypophysectomized rats given hGH (Example 13); assay type: in vivo, rat; conditions: hypophysectomized female rats; initial results
From the text: The controlled delivery of active human growth hormone (hGH, MW 20 Kd) was confirmed in the hypophysectomized rat model. Hypophysectomized female rats purchased from Taconic Labs (Germantown, N.Y.) were weighed each morning. Prior to the initiation of the study the rats were held 7 days to confirm lack of growth. The rats were divided into 3 groups of equal mean weights. Group 1 remained untreated and served as a negative control. Group 2 received an implant of hGH in a hydrogel made of a 3:1 blend of 3.4KL5 and 3.4KC6 (each device contained approximately 1 mg of hGH). The rats in Group 3 were injected with 100 μg hGH subcutaneously each day for the duration of the study.

[5] = Release of bST from cylindrical hydrogel devices of large and small diameter, HPLC (Example 10); assay type: physicochemical
Description: A macromer mixture containing approximately 30% (w/w) of bST was prepared using the methods described above. The macromer/protein mixture was put in a glass cylinder having an internal diameter of either 1.12 mm or 0.61 mm. The system was exposed to light for 20 seconds, removed from the glass cylinder, placed on aluminum foil, and exposed to light for an additional 3.5 minutes. The resulting hydrogel cylinders were placed in 1 mL of release media (PBS, pH 7.4), and the released bST was monitored by HPLC. […] In addition, the characteristics of the bST release indicated degradation/swelling of a controlled system. […] For n=0.5, the drug release follows a Fickian-diffusion mechanism. For n>0.5, non-Fickian behavior was observed.
In a different analysis based only on diffusion, the flux from the cylinder was analyzed using the following Fickian equation: J=D*A*ΔC/ΔX, where J is the flux; D is the diffusion constant; A is the surface area; C is the concentration in the cylinder; and […] from the center. In this analysis the flux should differ dramatically whether the release occurred from either a large or a small diameter cylinder. Theoretical analysis predicted that under Fickian diffusion, when the smaller diameter cylinder released 20%, the larger diameter cylinder would release 7% of the incorporated drug. […]

[6] = In vitro release of bST from 3.4KL5/PEG-diacrylate blend discs, SEC-HPLC (Example 5); assay type: physicochemical
Description: Device Preparation: A blend of a degradable macromer (3.4KL5) and a non-degradable macromer (PEG-diacrylate, MW 3,400) was used. The protein used was ZnbST (Monsanto/Protiva). The protein was loaded at a loading of 20%, based on dry weight. 3 samples were prepared, as follows.
Sample preparation: 20 μL of the bST-precursor solution were prepared, as described in Example 1. The mixture was pipetted using a positive displacement pipette with a silanized glass tip. The solution was placed onto a silanized glass slide. Using pieces of plastic sheets with thicknesses of about 0.4±0.2 mm as spacers, another silanized glass slide was placed on top and held firmly in place using binder clips. A light source (ILC Technology, Inc. Xenon Light Source with Fiber Optics) was adjusted to about a 5-cm distance from the glass slide using clamps and a stand. The center of the disc was illuminated; both sides of the disc were illuminated, for two minutes each.
The clips, the glass slide, and the spacers were carefully removed. With a spatula and tweezers, the discs were removed and weighed on a clean, tared silanized glass slide. The disc was placed into a heat-sealed membrane bag, as described in more detail below. One 20 μL disc was placed in each bag. The bag was heat-sealed, placed in 2.0 mL of phosphate buffer release media (0.01% NaN3, 0.05M PBS, pH 7.4), placed on an orbital shaker turning at 100 rpm, and incubated at 39° C.
For each time point, the bag was placed into fresh 2.0 mL of PBS Release Media. Samples were collected for analysis every day for as long as the bST was being released.
Membrane bags were prepared as follows. Membrane sheets were cut into pieces of approximately 7×2.5 cm. The sheets were folded in half. Using a Bunsen burner or a propane torch, a spatula was heated until it became red. The edges of the sheets were aligned, and the side of the membrane was cut with the […] to seal the sides. […]
The samples were analyzed daily by SEC-HPLC. Monomers, dimers, and soluble aggregates could be detected using this method. […]

hypophysectomized rats [7] = experiment: Growth of hypophysectomized rats given bST (Example 9); assay type: in vivo, rat; conditions: hypophysectomized female rats, 118±1.5 grams on day 1; mean±sem
From the text: The controlled delivery of active bovine somatotropin (MW 20 Kd) was confirmed in the hypophysectomized rat model. Hypophysectomized female rats were purchased from Taconic Labs (Germantown, N.Y.). The rats were weighed each morning. Prior to the initiation of the study, the rats were held 7 days to confirm lack of growth. On day 1 of the study the rats weighed 118±1.5 grams (mean±sem, n=18). The rats were divided into 3 groups of equal mean weights. Group 1 remained untreated and served as a negative control. Group 2 received an implant of bST in a hydrogel made of a blend of 3:1 of 3.4KL5 and PEGDA (each device contained 0.9 to 1.1 mg of bST). The rats in Group 3 were injected with 100 μg bST subcutaneously each day for the duration of the study.

[8] = In vitro release of ZnbST from 50:50 blend of 3.4KL5 and 3.4KC6, SEC-HPLC (Example 7); assay type: physicochemical; conditions: 25% loading in 50:50 blend of 3.4KL5 and 3.4KC6
Description: Devices were prepared as describe above. Macromers containing a blend of a soluble macromer (3.4KL5) and an insoluble macromer (3.4KC6) were used in a ratio of 50:50. The protein used was ZnbST (Protiva/Monsanto); it was loaded at a loading of 25%, based on dry weight. Six samples were prepared. The samples were analyzed by SEC-HPLC, as described above. The samples were monitored for the presence of monomers, dimers and soluble aggregates.

[9] = In vitro release of ZnbST from 75:25 blend of 3.4KL5 and 3.4KC6, SEC-HPLC (Example 8); assay type: physicochemical
Description: Devices were prepared as describe above. A blend of a soluble macromer (3.4KL5) and an insoluble macromer (3.4KC6) were used, in a ratio of 75:25. The protein ZnbST (Protiva/Monsanto) was loaded at a loading of 25%, based on dry weight. Six samples were prepared. The samples were analyzed by SEC-HPLC to detect monomers, dimers, and soluble aggregates, as described above.

EPO: human erythropoeitin
reticulocytes (male Sprague-Dawley rats): about 19% | EPO still being released ([1]; after 120 hours): over 500 units | period over which EPO was released ([1]; average 2500 units per disc, PBS pH 7.4, 39° C.): at least 120 hours

Insulin: Zn-Insulin / insulin purchased from Sigma, loaded into 3.4KL5
dimers or soluble aggregates ([2]; SEC-HPLC): no dimers or soluble aggregates were detected | release achieved (complete release) ([2]; within 24 hours): 100% | period over which insulin was released ([3]; 3.4KL5 particles (16 mg) in release-bag, PBS pH 7.4, 39° C.): 90 min | insulin still being released ([3]; after 90 minutes, 3.4KL5 particles): 100 µg

hGH: human growth hormone (MW 20 Kd)
growth of the rats (hypophysectomized rats [4]): exhibited continued growth

B1: bovine somatotropin (protein, UniProt P01246 27-217, looked up)
Somatotropin: AFPAMSLSGLFANAVLRAQHLHQLAADTFKEFERTYIPEGQRYSIQNTQVAFCFSETIPAPTGKNEAQQKSDLELLRISLLLIQSWLGPLQFLSRVFTNSLVFGTSDRVYEKLKDLEEGILALMRELEDGTPRAGQILKQTYDKFDTNMRSDDALLKNYGLLSCFRKDLHKTETYLRVMKCRRFGEASCAF
notes: bovine somatotropin (MW 20 Kd)
exponent n characteristic of the mode of transport ([5]; both cylinders, n>0.5 = non-Fickian): 2 | incorporated drug released by the larger diameter cylinder (observed) ([5]; when the smaller diameter cylinder released 20%): 16% | initial release on each of the first two days ([6]; ZnbST 20% loading in blend of 3.4KL5 and PEG-diacrylate): 12% | period over which bST was released ([6]; ZnbST 20% loading in blend of 3.4KL5 and PEG-diacrylate MW 3,400, PBS pH 7.4, 39° C.): 14 days | dimers or soluble aggregates in the release media ([6]; ZnbST 20% loading in blend of 3.4KL5 and PEG-diacrylate, SEC-HPLC): No detectable levels | body weight after 11 days (hypophysectomized rats [7]): 151±4 grams

B2: ZnbST: ZnbST protein (Monsanto/Protiva) loaded into macromer hydrogels (protein, UniProt P01246 27-217, looked up)
Somatotropin: AFPAMSLSGLFANAVLRAQHLHQLAADTFKEFERTYIPEGQRYSIQNTQVAFCFSETIPAPTGKNEAQQKSDLELLRISLLLIQSWLGPLQFLSRVFTNSLVFGTSDRVYEKLKDLEEGILALMRELEDGTPRAGQILKQTYDKFDTNMRSDDALLKNYGLLSCFRKDLHKTETYLRVMKCRRFGEASCAF
modifications: zinc complex
notes: ZnbST protein (Monsanto/Protiva) loaded into macromer hydrogels
initial burst release [8]: no initial burst release was observed | period over which ZnbST was released [8]: 20 days | concentrations of dimers or soluble aggregates ([8]; SEC-HPLC): less than 2% | period over which ZnbST was released ([9]; 25% loading in 75:25 blend of 3.4KL5 and 3.4KC6): 17 days | dimer or aggregate released ([9]; 75:25 blend of 3.4KL5 and 3.4KC6, SEC-HPLC): Very little | incorporated ZnbST released ([9]; within 13 days of release, 75:25 blend of 3.4KL5 and 3.4KC6): 90%
